{"source": "patent US6649409", "key": {"[1]": {"molecular_target": "HIV-1 BX08 envelope glycoprotein gp160 expressed from the synthetic gene syn.gp160BX08 (HIV-1 BX08)", "assay": "flow cytometry (FACS) on transfected 293 cells, mean of duplicates"}, "[2]": {"molecular_target": "HIV-1 BX08 envelope glycoprotein gp160 expressed from the wild type gene wt.gp160BX08 (HIV-1 BX08)", "assay": "flow cytometry (FACS) on transfected 293 cells, mean of duplicates"}, "[3]": {"molecular_target": "HIV-1 BX08 envelope glycoprotein gp160 expressed from the synthetic gene syn.gp160BX08 (HIV-1 BX08)", "assay": "flow cytometry (FACS) on transfected 293 cells, PE-labelled rat anti-mouse IgG1 as secondary"}, "[4]": {"molecular_target": "HIV-1 BX08 envelope glycoprotein gp160 expressed from the wild type gene wt.gp160BX08 (HIV-1 BX08)", "assay": "flow cytometry (FACS) on transfected 293 cells, PE-labelled rat anti-mouse IgG1 as secondary"}}, "note": "Several values for one entry are separate records, joined by “and”; a condition that tells them apart may be missing. Equal values may be shown once.", "data": [{"substance": "mouse monoclonal IgG antibody to HIV gp120 (NEA-9301, NEN Life Science Products Inc., Boston)", "values": [{"measurement": "mean % of cells stained", "setting": "[1]", "result": 48, "unit": "%"}, {"measurement": "mean % of cells stained", "setting": "[2]", "result": 11, "unit": "%"}, {"measurement": "% of cells stained (C: Primary Ab and secondary Ab added)", "setting": "[3]", "result": "36.9% and 58.4%"}, {"measurement": "% of cells stained, C-A (less control without primary antibody)", "setting": "[3]", "result": "34.3% and 55.6%"}, {"measurement": "% of cells stained, C-B (less autofluorescence control)", "setting": "[3]", "result": "34.1% and 56.3%"}, {"measurement": "% of cells stained (C: Primary Ab and secondary Ab added)", "setting": "[4]", "result": "14.4% and 7.51%"}, {"measurement": "% of cells stained, C-A (less control without primary antibody)", "setting": "[4]", "result": "11.4% and 5.56%"}, {"measurement": "% of cells stained, C-B (less autofluorescence control)", "setting": "[4]", "result": "13% and 5.99%"}]}]}
